In patent US20070274969A1 (published 2007):

B1: human Bub1, endogenous (enzyme)
chain: MDTPENVLQMLEAHMQSYKGNDPLGEWERYIQWVEENFPENKEYLITLLEHLMKEFLDKKKYHNDPRFISYCLKFAEYNSDLHQFFEFLYNHGIGTLSSPLYIAWAGHLEAQGELQHASAVLQRGIQNQAEPREFLQQQYRLFQTRLTETHLPAQARTSEPLHNVQVLNQMITSKSNPGNNMACISKNQGSELSGVISSACDKESNMERRVITISKSEYSVHSSLASKVDVEQVVMYCKEKLIRGESEFSFEELRAQKYNQRRKHEQWVNEDRHYMKRKEANAFEEQLLKQKMDELHKKLHQVVETSHEDLPASQERSEVNPARMGPSVGSQQELRAPCLPVTYQQTPVNMEKNPREAPPVVPPLANAISAALVSPATSQSIAPPVPLKAQTVTDSMFAVASKDAGCVNKSTHEFKPQSGAEIKEGCETHKVANTSSFHTTPNTSLGMVQATPSKVQPSPTVHTKEALGFIMNMFQAPTLPDISDDKDEWQSLDQNEDAFEAQFQKNVRSSGAWGVNKIISSLSSAFHVFEDGNKENYGLPQPKNKPTGARTFGERSVSRLPSKPKEEVPHAEEFLDDSTVWGIRCNKTLAPSPKSPGDFTSAAQLASTPFHKLPVESVHILEDKENVVAKQCTQATLDSCEENMVVPSRDGKFSPIQEKSPKQALSSHMYSASLLRLSQPAAGGVLTCEAELGVEACRLTDTDAAIAEDPPDAIAGLQAEWMQMSSLGTVDAPNFIVGNPWDDKLIFKLLSGLSKPVSSYPNTFEWQCKLPAIKPKTEFQLGSKLVYVHHLLGEGAFAQVYEATQGDLNDAKNKQKFVLKVQKPANPWEFYIGTQLMERLKPSMQHMFMKFYSAHLFQNGSVLVGELYSYGTLLNAINLYKNTPEKVMPQGLVISFAMRMLYMIEQVHDCEIIHGDIKPDNFILGNGFLEQDDEDDLSAGLALIDLGQSIDMKLFPKGTIFTAKCETSGFQCVEMLSNKPWNYQIDYFGVAATVYCMLFGTYMKVKNEGGECKPEGLFRRLPHLDMWNEFFHVMLNIPDCHHLPSLDLLRQKLKKVFQQHYTNKIRALRNRLIVLLLECKRSRK
notes: mature; also called hBub1; Bub1 (U2OS cells)

How the values were obtained:
T antigen mutant D44N = target: T1, T antigen mutant D44N (SV40, UniProt P03070 1-708); assay: co-immunoprecipitation from U2OS stable lines
T1 construct: Defective DnaJ domain

[1] = target: T2, SV40 large T antigen, wild-type (SV40, UniProt P03070 1-708); assay: co-immunoprecipitation from U2OS/T cell lysates
T2 construct: also called wild-type T antigen; T Ag

[2] = target: T2, SV40 large T antigen, wild-type; assay: co-immunoprecipitation from NIH3T3/T cell lysates
human Bub1, endogenous = target: B1; assay: co-immunoprecipitation from U2OS stable lines

Binder: B1
- binding result (T antigen mutant D44N): binds
- binding result [1]: binds

B2: mouse Bub1, endogenous (enzyme)
chain: MDNLENVFRMFEAHMQSYTGNDPLGEWESFIKWVEENFPDNKEYLMTLLEHLMKEFLHKKNYHNDSRFINYCLKFAEYNSDRHQFFEFLYNQGIGTKSSYIYMSWAGHLEAQGELQHASAIFQTGIHNEAEPKELLQQQYRLFQARLTGIHLPAQATTSEPLHSAQILNQVMMTNSSPEKNSACVPKSQGSECSGVASSTCDEKSNMEQRVIMISKSECSVSSSVAPKPEAQQVMYCKEKLIRGDSEFSFEELRAQKYNQRKKHEQWVSEDRNYMKRKEANAFEEQLLKQKMDELHKKLHQVVELSHKDLPASENRPDVSLVCVGQNTCSQQELRGPSLSSISHQTSESSGEKPQEEPSVPLMVNAVNSTLLFPAANLPALPVPVSGQSLTDSRCVNQSVHEFMPQCGPETKEVCETNKVASINDFHTTPNTSLGMVQGTPCKVQPSPTVHTKEALGFIMDMFQAPTLPDISDDKDEWPSLDQNEDAFEAQFQKNAVSSGDWGVKKIMTLSSAFPIFEDGNKENYGLPQPKNKPLGARTFGERSLSKYSSRSNEMPHTDEFMDDSTVCGIRCNKTLAPSPKSIGDFTSAAQLSSTPFHKFPADLVQIPEDKENVVATQYTHMALDSCKENIVDLSKGRKLGPIQEKISASLPCPSQPATGGLFTQEAVFGLEAFKCTGIDHATVEDLSDANAGLQVECVQTLGNVNAPSFTVENPWDDELILKLLSGLSKPVTSYSNTFEWQSKLPAIKTKTEYQLGSLLVYVNHLLGEGAFAQVFEAIHGDVRNAKSEQKCILKVQRPANSWEFYIGMQLMERLKPEVHHMFIKFYSAHLFKNGSILVGELYSYGTLLNVINLYKNTSEKVMPQALVLTFAIRMLYMVEQVHSCEIIHGDIKPDNFILGHRFLEQADEDLATGLALIDLGQSIDMKLFPKGTVFTGKCETSGFQCPEMLSNKPWNYQIDYFGVAATIYCMLFGSYMKVKNEGGVWKPEGLFRRLPHLDMWEEFFHIMLNIPDCHNLPSLDFLRQNMKKLLEQQYSNKIKTLRNRLIVMLSEYKRSRK
notes: mature; also called mBub1; Bub1 (NIH3T3 cells)
- binding result [2]: binds

B3: T antigen deletion mutant dl89-97 (other)
chain: MDKVLNREESLQLMDLLGLERSAWGNIPLMRKAYLKKCKEFHPDKGGDEEKMKKMNTLYKKMEDGVKYAHQPDFGGFWDATEIPTYGTFNEENLFCSEEMPSSDDEATADSQHSTPPKKKRKVEDPKDFPSELLSFLSHAVFSNRTLACFAIYTTKEKAALLYKKIMEKYSVTFISRHNSYNHNILFFLTPHRHRVSAINNYAQKLCTFSFLICKGVNKEYLMYSALTRDPFSVIEESLPGGLKEHDFNPEEAEETKQVSWKLVTEYAMETKCDDVLLLLGMYLEFQYSFEMCLKCIKKEQPSHYKYHEKYYANAAIFADSKNQKTICQQAVDTVLAKKRVDSLQLTREQMLTNRFNDLLDRMDIMFGSTGSADIEEWMAGVAWLHCLLPKMDSVVYDFLKCMVYNIPKKRYWLFKGPIDSGKTTLAAALLELCGGKALNVNLPLDRLNFELGVAIDQFLVVFEDVKGTGGESRDLPSGQGINNLDNLRDYLDGSVKVNLEKKHLNKRTQIFPPGIVTMNEYSVPKTLQARFVKQIDFRPKDYLKHCLERSEFLLEKRIIQSGIALLLMLIWYRPVAEFAQSIQSRIVEWKERLDKEFSLSVYQKMKFNVAMGIGVLDWLRNSDDDDEDSQENADKNEDGGEKNMEDSGHETGIDSQSQGSFQAPQSSQSVHDHNQPYHICRGFTCFKKPPTPPPEPET
- binding result (human Bub1, endogenous): no binding
